Positions count from the first letter of the chain named.
T1: GFP-9S library array, motif 4 ND N98F;D124P (synthetic construct, N98F;D124P)
T1 chain: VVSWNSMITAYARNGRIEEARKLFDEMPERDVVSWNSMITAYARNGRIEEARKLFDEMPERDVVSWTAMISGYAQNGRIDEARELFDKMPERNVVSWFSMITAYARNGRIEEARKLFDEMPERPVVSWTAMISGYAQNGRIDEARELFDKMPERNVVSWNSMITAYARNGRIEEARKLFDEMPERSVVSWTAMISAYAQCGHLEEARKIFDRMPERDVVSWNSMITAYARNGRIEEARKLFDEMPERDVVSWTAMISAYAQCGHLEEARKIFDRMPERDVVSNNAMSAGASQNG

T2: GFP-9S library array, motif 4 ND N98S;D124N (synthetic construct, N98S;D124N)
T2 chain: T1 chain with F98S, P124N

T3: GFP-9S library array, motif 4 ND N98I;D124C (synthetic construct, N98I;D124C)
T3 chain: T1 chain with F98I, P124C

T4: GFP-9S library array, motif 4 ND N98H;D124F (synthetic construct, N98H;D124F)
T4 chain: T1 chain with F98H, P124F

T5: GFP-9S library array, motif 4 ND N98P;D124G (synthetic construct, N98P;D124G)
T5 chain: T1 chain with F98P, P124G


How the values were obtained:
Assay in all cases: high-throughput RNA pulldown from lysate on Ni-NTA beads; HRP: 50 mM Tris pH 8, 150 mM NaCl, 1 mM beta-mercaptoethanol, 50 ug/ml BSA, 3 ug/ml yeast RNA, 0.5% heparin; ITC and FP: Tris pH 8, 200 mM KCl, 5% glycerol; MST: 50 mM Tris pH 8, 200 mM NaCl, 1 mM DTT, BSA, heparin, 0.05% Tween 20
Conditions in all cases: tags: N-terminal His-eGFP
[1] = target: T1, GFP-9S library array, motif 4 ND …
[2] = target: T2, GFP-9S library array, motif 4 ND …
[3] = target: T3, GFP-9S library array, motif 4 ND …
[4] = target: T4, GFP-9S library array, motif 4 ND …
[5] = target: T5, GFP-9S library array, motif 4 ND …

Row | Binder | Kd ([1]; label: 5' Cy5) | Kd ([2]; label: 5' Cy5) | Kd ([3]; label: 5' Cy5) | Kd ([4]; label: 5' Cy5) | Kd ([5]; label: 5' Cy5) | Kd ([1]; label: 5' IRDye 800CW) | Kd ([2]; label: 5' IRDye 800CW) | Kd ([3]; label: 5' IRDye 800CW) | Kd ([4]; label: 5' IRDye 800CW) | Kd ([5]; label: 5' IRDye 800CW)
1 | AUUACACGUGA (ssRNA) [Cy5-rpoA] | 140 nM | 235 nM | 182 nM | 140 nM | 345 nM | – | – | – | – | –
2 | AUUAGACGUGA (ssRNA) [Cy5-rpoA-G] | 181 nM | 296 nM | 90.6 nM | 134 nM | 262 nM | – | – | – | – | –
3 | AUUAAACGUGA (ssRNA) [IR-rpoA-A] | – | – | – | – | – | 393 nM | 50.8 nM | 42.5 nM | 320 nM | 735 nM
4 | AUUAUACGUGA (ssRNA) [IR-rpoA-U] | – | – | – | – | – | 196 nM | 272 nM | 32.9 nM | 204 nM | 778 nM
